Experimental data published in PMC11707020.

Molecular target: USP25 (UniProt Q9UHP3)
Assay: co-immunoprecipitation, western blot
Conditions: reference: HA-STAT3 wild type; sites Y705

STAT3 (from UniProt P40763) HA-STAT3 Y705F
binding against the reference: weaker
